Reference: patent publication US6815532B2, “ATR-2 cell cycle checkpoint” (ICOS Corporation, priority 1999, dated 2004)

Columns and labels:
Format in all cases: biochemical
[1] = tested on: histone H1; test: ATR-2 kinase assay with substrate histone H1
[2] = target: T1, Atr-2 protein (Homo sapiens, UniProt Q96Q15); test: ATR-2 kinase assay, autophosphorylation (immunoprecipitated FLAG-tagged Atr-2 fragment from 293T cells, 32P-ATP, P81 paper); conditions: immunoprecipitate from transfected 293T cells, 30° C. for 30 min
T1 construct: a region containing the putative kinase domain was subcloned into the mammalian expression vector, pCIneo; made in house; host or cells: 293T cells (transient transfection, anti-FLAG M2 immunoprecipitate on protein A beads)
Experimental: (§1) After 48 hr, cells were harvested and lysed in 0.5 ml lysis buffer (Example 6), and the lysates were precleared by incubation with 50 μl protein A beads for 2 hr at 4° C. The supernatant was immunoprecipitated with 6 μg anti-M2 antibody for one hr at 4° C. and the sample was divided into five aliquots. One hundred μl of the mixture was combined with 10 μl protein A beads for three hr at 4° C., after which the beads were washed twice with lysis buffer and three times in kinase buffer containing 10 mM HEPES, pH 7.4, 10 mM MnCl2, 50 mM NaCl, 10 mM MgCl2, and 5 mM DTT.
(§2) In the kinase assay, 10 μl protein A beads was mixed with 10 μl PKA and PKC inhibitors from a p79^S6 kinase assay kit (Upstate Biotechnology Inc., Lake Placid, N.Y.) and 10 μl ATP mixture: containing kinase buffer (above) with 10 mM ATP, 3 μCi ^32P-ATP, plus or minus 6 μl myelin basic protein as substrate. Reactions were incubated at 30° C. for 30 min and 20 μl of the reaction mixture was spotted onto P81 paper. The P81 paper was washed three times in 150 mM phosphoric acid and dried, and Cerenkov radiation measured.

[3] = tested on: PHAS-1; test: ATR-2 kinase assay with substrate PHAS-1
[4] = tested on: myelin basic protein; test: ATR-2 kinase assay with exogenous substrate myelin basic protein; conditions: immunoprecipitate from transfected 293T cells, 30° C. for 30 min, 32P-ATP
Experimental: as §1, §2

B1: 73 kDa Atr-2 truncated protein: FLAG-tagged truncated human Atr-2 containing the putative kinase domain, expressed from pCIneoFLAGATR2 in 293T cells (protein)
chain: MLVAELRRVTVLWDELWLGVLLQQHMYVLRRIQQLEDEVKRVQNNNTLRKEEKIAIMREKHTALMKPIVFALEHVRSITAAPAETPHEKWFQDNYGDAIENALEKLKTPLNPAKPGSSWIPFKEIMLSLQQRAQKRASYILRLEEISPWLAAMTNTEIALPGEVSARDTVTIHSVGGTITILPTKTKPKKLLFLGSDGKSYPYLFKGLEDLHLDERIMQFLSIVNTMFATINRQETPRFHARHYSVTPLGTRSGLIQWVDGATPLFGLYKRWQQREAALQAQKAQDSYQTPQNPGIVPRPSELYYSKIGPALKTVGLSLDVSRRDWPLHVMKAVLEELMEATPPNLLAKELWSSCTTPDEWWRVTQSYARSTAVMSMVGYIIGLGDRHLDNVLIDMTTGEVVHIDYNVCFEKGKSLRVPEKVPFRMTQNIETALGVTGVEGVFRLSCEQVLHIMRRGRETLLTLLEAFVYDPLVDWTAGGEAGFAGAVYGGGGQQAESKQSKREMEREITRSLFSSRVAEIKVNWFKNRDEMLVVLPKLDGSLDEYLSLQEQLTDVEKLQGKLLEEIEFLEGAEGVDHPSHTLQHRYSEHTQLQTQQRAVQEAIQVKLNEFEQWITHYQAAFNNLEATQLASLLQEISTQMDLGPPSYVPA
modifications: left off: small tags and cut ends
notes: FLAG-tagged truncated human Atr-2 containing the putative kinase domain, expressed from pCIneoFLAGATR2 in 293T cells
kinase activity: phosphorylation of histone H1 [1]: did not phosphorylate
kinase activity: phosphorylation of the Atr-2 protein itself [2]: able to phosphorylate
kinase activity: phosphorylation of PHAS-1 [3]: did not phosphorylate
kinase activity: phosphorylation of exogenous myelin basic protein substrate [4]: able to phosphorylate
